# Results from the nanobody polyreactivity screen of Harvey et al. (2022).
# Test: yeast display, Sf9 membrane polyspecificity reagent, FACS + sequencing; frameworks hold sequencing errors
# Procedure, shortened: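 A synthetic nanobody library was expressed on Saccharomyces cerevisiae BJ5465 by galactose induction for 36–48 hours. The library was stained for 1 hour at 4 °C with 10% biotinylated, detergent-solubilized Sf9 membrane reagent and enriched with streptavidin microbeads before FACS. Low and high (top ~1%) gates were set on anti-HA fluorescence for expression and streptavidin fluorescence for reagent binding, and each polyreactivity label reflects the gate of origin.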
row,Sequence,polyreactivity (PSR sort gate)
1,QVQLVESGGGLVQAGGSLRLSCAASGITFTVYAMGWYRQAPGKERELVAAISQSGGSTYYADSVKGRFTISRDNAKNTVYLQMNSLNPEYTAVYDCNSDTVWGPYRSYIPFDYWGQGTQVNVSS,low polyreactivity
2,QVQLVESGGGLVQAGGSLRLSCAASGITFTWYAMGWYRQAPGKERELVAAISGGGSTYYVDSVKGRFTISRDNAKNTVYLQMNSLKPEDTAVYYCAARYSWTRRTMYYWGQGTQVTVSS,high polyreactivity
3,QVQLVESGGGLVQAGGSLRLSCAASGITFVAYAMGWYRQAPGKERELVAAISKSGGNTYYADSVKGRFTISRDNAKNTVYLQMNSLKPEDTAVYYCAAPRRYAWGQVNYWGQGTQVTVSS,high polyreactivity
4,QVQLVESGGGLVQAGGSLRLSCAASGITFVGNAMGWYRQAPGKERELVAGIRGNGGSTYYADSVKGRFTISRDNAKNTVYLQMNSLKPEDTAVYYCAAAAYYADFDYWGQGTQVTVSS,low polyreactivity
5,QVQLVESGGGLVQAGGSLRLSCAASGITFVGNDMGWYRQAPGKERELVATISSSGTRTYYADSVKGRFTISRDNAKNTVYLLMNSLKPEDTAVYYCAARWRSYITYWFDYWGQGTQVTVSS,low polyreactivity
6,QVQLVESGGGLVQAGGSLRLSCAASGITFVRNAMGWYRQAPGKEREFVAAISWSGGSTYYADSVKGRFTISRDNAKNTVYLQMNSLKPEDTAVYYCAKRSRGVKYDYWGQGTQVTVSS,high polyreactivity
7,QVQLVESGGGLVQAGGSLRLSCAASGITFVRNAMGWYRQAPGKERELVAAITSRGGITYYADSVKGRFTISRDNAKNTVYLQMNSLKPEDTAVYYCNKTRGYAVNGYNYWGQGTQVTVSS,high polyreactivity
8,QVQLVESGGGLVQAGGSLRLSCAASGITFVRYAMGWYRQAPGKEREFVAAINSIVGRTYYADSVKGRFTISRDNAKNTVYLQMNSLKPEDTAVYYCAADSNVRYGMDYWGQGTQVTVSS,low polyreactivity
9,QVQLVESGGGLVQAGGSLRLSCAASGITFVRYAMGWYRQAPGKERELVAAISSGGSTHYADSVKGRFTISRDNAKNTVYLQMNSLKPEDTAVYYCAAQWTESSLYRFGYWGQGTQVTVSS,high polyreactivity
10,QVQLVESGGGLVQAGGSLRLSCAASGITFVSYTMGWYRQAPGKERELVAAISTSGGSTYYADSVKGRFTISRDNAKNTVYLQMNSLKPEDTAVYYCAARQVRTIRKYGYWGQGTQVTVSS,high polyreactivity
11,QVQLVESGGGLVQAGGSLRLSCAASGITFVTYAMGWYRQAPGKEREFVASINWITGNTYYADSVKGRFTISRDNAKNTVYLQMNSLKPEDTAVYYCATVDWSLYLGTPPSYYWGQGTQVTVSS,low polyreactivity
12,QVQLVESGGGLVQAGGSLRLSCAASGITFVTYAMGWYRQAPGKERELVAAISRSGGRTYYADSVKGRFTISRDNAKNTVYLQMNSLKPEDTAVYYCAAERKNKYDYWGQGTQVTVSS,high polyreactivity
13,QVQLVESGGGLVQAGGSLRLSCAASGITFVYYAMGWYRQAPGKDRELVAAITSTGGSTYYADSVKGRFTISRDNAKNTVYLQMNSLKPEDTAVYYCAAVPRGTQGAMDYWGQGTQVTVSS,low polyreactivity
14,QVQLVESGGGLVQAGGSLRLSCAASGITFVYYAMGWYRQAPGKERELVAAISKNGGSTYYADSVKGRFTISRDNAKNTVYLQMNSLKPEDTAVYYCAAEEGYRWVRYNYWGQGTQVTVSS,high polyreactivity
15,QVQLVESGGGLVQAGGSLRLSCAASGITFVYYAMRSYRQAPGKERELVAAITRSGDSTYYADSVKGRFTISRDNAKNTVYLQMNSLKPEDSAVYYCAAESYYSTYQVEYYYWGQGTQVTVSS,high polyreactivity
16,QVQLVESGGGLVQAGGSLRLSCAASGITFWANAMGWERQAPGKERELVASIRSSGGSTYYADSVKGRFTISRDNAKNTVYLQMYSLKPEDTAVYYCYAKRTGPWFLHVPVYYWGQGTQVTVSS,low polyreactivity
17,QVQLVESGGGLVQAGGSLRLSCAASGITFWLYAMGWYRQAPGKERELVAAISYSGGSTYYADSVKGRFTISRDNAKNTVYLQMNSLKPEETEVYYCNTGSRYRPNRRYGYWGQGTQVTVSS,high polyreactivity
18,QVQLVESGGGLVQAGGSLRLSCAASGITFWNNAKGWYRQAPGKEREFVATISSNGGRTYYADSVKGRFTISRDNAKNTVYLQMNSLKPEDNAVYYCNAARRAYGYNYWGQGTQVTVSS,low polyreactivity
19,QVQLVESGGGLVQAGGSLRLSCAASGITFWPYALGWYRPAPGKERELVAAIRASVGRTYYADSVKGRFTISRDNAKNTVYLQMNSLKPEDTAVYYCNAYGRYGKFRVEYDYWGQGTQVTVSS,low polyreactivity
20,QVQLVESGGGLVQAGGSLRLSCAASGITFWRNAMGWYRQAPGKESELVAAISWSVGRTYYADSVKGRFTISRDNAKNTVYLQMNSLKPEDTAFYYCIARWRSGPRAYDYWGQGTQVSVSS,high polyreactivity
21,QVQLVESGGGLVQAGGSLRLSCAASGITFWRTAMGWYRQAPGKEREFVAAITWTGGRTYYADSVKGRFTISRDNAQNTVYLQMNSLKPEDTAVYYCATGQSRDYYWGQGTQGTVSS,high polyreactivity

row,Sequence,polyreactivity (PSR sort gate)
1,QVQLVESGGGLVQAGGSLRLSCAASGITFWTYAMGWYRQAPGKERELVAAISKSGGSTYYADSVKGRFTISRDNAKNTVYLQMNSLKPEDTAVYYCAAKGLRYRDIDYDYWGQGTQVTVSS,low polyreactivity
2,QVQLVESGGGLVQAGGSLRLSCAASGITFWWYAMGWYRQAPGKERELVAAITGGGSTNYADSVKGRFTISRDNAKNTVYLQMNSLKPEDTAVYYCAATGSPARNWDTVTGYYYWGQGTQVTVSS,low polyreactivity
3,QVQLVESGGGLVQAGGSLRLSCAASGITFYDYTMVWYRQAPGKESELVAVITSAGSTYYADSVKGRFTISRDNAKNTVYLQMNSLKPEDTAVYYCAAVIVSRGRKYRLDYWGQGTQVTVSS,high polyreactivity
4,QVQLVESGGGLVQAGGSLRLSCAASGITFYEYAMGCYRQAPGTERDFVAAIDHGDSSTYYADSVKGRFTISRDNAKNTVYLQMNSLKPEDTAVYYCNADPYYDYSLNWGDYWGQGTQVTVSS,low polyreactivity
5,QVQLVESGGGLVQAGGSLRLSCAASGITFYFNAIGWYRQAPGKDRELVAAIAWPGGSTYYADSVKGRFTISRDNAKHTVFLQMNSLKPEDTAVYYCNGVFRYWYADSWFGAYDYWGQGTQVTVSS,high polyreactivity
6,QVQLVESGGGLVQAGGSLRLSCAASGITFYFNAMGWYRQAPGKEREMVAAISWPGGSTYYADSVKGRFTISRDNAKNTVYLQMNRLKPEDTAVYYCAAEAYFELSGGGLEYGYDYWGQGTQVTVSS,high polyreactivity
7,QVQLVESGGGLVQAGGSLRLSCAASGITFYFYAMGWYRQAPWKERELVAAITSTGTSTYYADSVKGRFTISRDNAKNTVYLQMNILKPEDTAVYYCNVTDYHTLWYDPEYYWGQGTQVTVSS,low polyreactivity
8,QVQLVESGGGLVQAGGSLRLSCAASGITFYGNAMGWYRQAPGKERELVAGIRSSGGDTYYADSVKGRFTISRDNAKNTVYLQMNSLKPEDTAVYYCAADFDWFIWGYDYWGQGTQVTVSS,low polyreactivity
9,QVQLVESGGGLVQAGGSLRLSCAASGITFYGNAMGWYRQAPGNERELVAAITFSGGITYYADSVKGRFTISRDNAKNTVYLQMNSLKPEDTAVYDCATDPIGGWTRPQRYGDDYWGQGTQVTVSS,low polyreactivity
10,QVQLVESGGGLVQAGGSLRLSCAASGITFYGYAMGWYIQAPGKERELVASITSTGSTNYADSVKGRFTISRDNAKNTVYLQMNSLKPEDTAVYYCAARYREVYRSKRKLGYWGQGTQVTVSS,high polyreactivity
11,QVQLVESGGGLVQAGGSLRLSCAASGITFYGYAMGWYRQAPGKEREFVATISKSGGITSYADSVKGRFTISRDNAKNTVYLQMNSLKPEDTAVYYCNRGKRYGGYDYWGQGSQVTVSS,low polyreactivity
12,QVQLVESGGGLVQAGGSLRLSCAASGITFYGYAMGWYRQAPGKERELVAAISKRGGSTYYADSVKGRFTISRDNAKNTVYLQMNSLKPEDTAVYYCNARPGKSQGWRYDYWGQGTQVTVSS,high polyreactivity
13,QVQLVESGGGLVQAGGSLRLSCAASGITFYGYAMGWYRQAPGKERELVAAISKSGGSTHYADSVKGRFTISRDNAKNTVYLQMNSLKPEDTAVYYCATEGYYYYTSYDYWGQGTQVTVSS,low polyreactivity
14,QVQLVESGGGLVQAGGSLRLSCAASGITFYGYAMGWYRQAPGKERELVATISSGGGTNYADSVKGRFTISRDNAKNTVYLQMNSLKPEDTAVYYCATDLSTVDYNYWGQGTQVTVSS,low polyreactivity
15,QVQLVESGGGLVQAGGSLRLSCAASGITFYGYDMGWFRQAPGKERELVASSTYYADSVKGRFTISRDNAKNTVYLQMNSLKPEDTAVYYCITVYYQWVTYGYWGQGTQVTVSS,high polyreactivity
16,QVQLVESGGGLVQAGGSLRLSCAASGITFYGYDMGWYIQAPGKERELVAAISRSGGSTYYADSVKGRFTISRDNAKNTVYLQMNSLKPEDTAVYYCAADKQGYRGRTPYRYYSWGQGTQVTVSS,high polyreactivity
17,QVQLVESGGGLVQAGGSLRLSCAASGITFYIYAMGCYRHAPGKERELVAAISSTGGSTYYADSVKGSFTISRDNAKNTVYLQMNSLKPEDNAVYYCNAVFRGTGDYWGQGTQVTVSS,high polyreactivity
18,QVQLVESGGGLVQAGGSLRLSCAASGITFYKNAMGWYRPAPGKERELVAAISGRGGTTYYADSVKGRFTLSRDNAKNTVYVQMNSLKPEDTAVYYCNTVRWAWPYLKFDYWGQGTQVTVSS,high polyreactivity
19,QVQLVESGGGLVQAGGSLRLSCAASGITFYKYDMGCYRQATGKERELVAAISFRGGNTNYADSVKGRFTISRDNAKNTVYLQMTSLKPEDTAVYYCAAYSYTWFYEYGYWGLGTQVTVSS,high polyreactivity
20,QVQLVESGGGLVQAGGSLRLSCAASGITFYLNAMGWYRQAPGKDRELVADITVSGGSTYYADSVKGRFTISRDNAKNTVYLQMNSLKPEDTAVYYCAADLTISYSQEYYYWGQGTQVTVSS,low polyreactivity
